Results reported in patent US6362319B1, “Glial cell line-derived neurotrophic factor” (Amgen Inc., priority 1991, dated 2002).

Tested on: nigral dopaminergic nerve cells
Assay: Experimental Parkinsonism in monkeys treated with MPTP
Assay type: in vivo, monkeys (Cebus apella)
Conditions: intraventricular minipump, 14 days, MPTP 0.6 mg/kg
Description: A stainless-steel cannula may be implanted into the right lateral ventricle and connected to a subcutaneously-implanted osmotic minipump (Alzet 2002). The minipump contains GDNF at various concentrations or its diluent as a negative control. The pump delivers 0.5 μl/h for 14 days. Two days after the cannula-pump implant, monkeys (Cebus apella) receive an injection of 0.6 mg/kg of MPTP into the right carotid artery. Six weeks after the initial implant, animals are perfused with saline and the brain rapidly removed. The brain is dissected on ice and punches of tissue are removed from the caudate nucleus and putamen. The substantia nigra is placed in fixative. The caudate-putamen tissue is analyzed by HPLC-EC for dopamine, the substantia nigra is processed for tyrosine hydroxylase (TH) immunoreactivity.
Degeneration of nigral dopaminergic nerve cells and their axonal projections to the caudate/putamen cause experimental Parkinsonism in this monkey model. There are several experimental indications that GDNF may prevent or reduce the severity of this neuronal degeneration. […] This indicates sparing by GDNF of nigral dopaminergic nerve cells from the toxic effects of MPTP. […] This indicates sparing by GDNF of the axonal projections of the nigral dopaminergic neurons from the toxic effects of MPTP. […]

B1: glial cell line-derived neurotrophic factor (protein)
chain: SNMPEDYPDQFDDVMDFIQATIKRLKRSPDKQMAVLPRRERNRQAAAANPENSRGKGRRGQRGKNRGCVLTAIHLNVTDLGLGYETKEELIFRYCSGSCDAAETTYDKILKNLSRNRRLVTDKVGQACCRPIAF
notes: dopaminergic neurotrophic protein purified from serum-free conditioned medium of rat B49 glioblastoma cells; disulfide-bonded dimer
loss of dopamine content in the caudate/putamen: may also prevent the loss of dopamine content in the caudate/putamen
